# How the values were obtained:
# MIA PaCa-2 tumor = assay: In vivo photoacoustic imaging; design: species or system mice; settings: 12 h after i.v. injection, 16 mg/kg
# Experimental: The MIA PaCa-2 tumor-bearing mice were constructed for in vivo photoacoustic imaging of M1. After intravenously injected with M1 (16 mg/kg) through tail vein, the PA images of mice were acquired with MOST (mode: MOST invision 128) at 12 h post injection.
# Supplementary Fig. 22∣ 3D reconstruction PA images of tumor-bearing mice injected with M1 (16 mg/kg) through tail
# vein.PA images of mice were acquired with MOST (mode: MOST 128) at 12 h post injection.
# (§1) (1 picture or pasted object on this page, not shown here)
# MIA PaCa-2 cells = assay: Cytotoxicity, CCK-8 assay; assay type: cell-based; settings: CCK-8, 24 h, at high concentration of 300 μM
# Experimental: The cytotoxicity of M1 and M2 was evaluated using CCK-8 assay in MIA PaCa-2 cells. Cells were seeded into 96-well plates at a density of 5 × 10^4 cells per well and placed in an incubator for 14 h. Subsequently, the sample was diluted into a series of different concentrations (0, 50, 100, 150, 200, 250, 300, and 350 μM) and incubated with cells for 24 h. After that, 10 μL of CCK-8 solution was added to each well and incubated for 2 h. The absorbance of blank wells (Ab), sample wells (As) and control wells (Ac) were measured with a microplate reader at a test wavelength of 450 nm and a reference wavelength of 690 nm. The cell viability rate (%) is equal to (As -Ab) / (Ac -Ab) ×100%. All experiments were repeated in triplicate.
# Supplementary Fig. 21∣ Cellviability assay of Miapaca-2 cells treated with a series concentration of M1 and M2 for 24 h.
# Tested by Cell Counting Kit-8 (Beyotime, C0039) The mean of results of six parallel experiments isshown and data were
# expressed as mean ± SD (n=6).
# as §1
# [1] = design: species or system mice; settings: mouse, in vivo, iv, 16 mg/kg
# Source text: The acute toxicity evaluation of M1 to mice were verified by blood biochemistry, hemograms, and histological analysis. The representative biomarkers of liver function included alanine aminotransferase (ALT), alkaline phosphatase (ALP), aspartate aminotransferase (AST), total protein (TP), and albumin concentration (ALB). […] In addition, the hematological assessment results including creatinine (CREA), white blood cells (WBC), red blood cells (RBC), hematocrit (HCT), mean corpuscular volume […], mean corpuscular hemoglobin […], mean corpuscular hemoglobin concentration (MCHC), red cell volume distribution width-coefficient of variation (RDW-CV), platelet (PLT)and mean platelet volume (MPV) were carried out (Fig. 8b). All the above indicators in PBS group and M1 group appeared normal, which was basically consistent with the normal range reported in the literature. Then the mice from PBS group and M1 group were sacrificed for the further histological section analysis of the significant organs. After Hematoxylin and Eosin (H&E) staining, the slices of heart, liver, spleen, lung, kidney, and pancreas were compared and evaluated (Fig. 8c).
# Fig. 8 Acute toxicity evaluation. a Liver function indicators: alanine aminotransferase (ALT), alkaline phosphatase (ALP), aspartate aminotransferase (AST), total protein (TP) and albumin concentration (ALB). […] Staining: H&E; Injection dose of M1. (i.v. administration): 16 mg/kg; Administration time: 24 h. Scale bar 200 μm.
# The female Balb/c nude mice (6–8 weeks, n = 3) were sacrificed for blood and major organs collection after treated with M1 at a dose of 16 mg/kg on the 24 h. The histology evaluation of major organs was performed by Google biotechnology (Wuhan) Co. LTD. The blood biochemistry and haematology analyses were carried out by Vital River Laboratory Animal Technology Co. Ltd.
# [2] = tested on: orthotopic pancreatic tumor (MIA PaCa-2); assay: Signal in small orthotopic tumor area versus healthy spleen area; assay type: in vivo; settings: orthotopic pancreatic tumor mice, i.v. 16 mg/kg, 12 h
# Experimental: To evaluate the imaging property of BIVA probe, the orthotopic pancreatic tumor mice model was built. After intravenous injected M1 and M2 molecules with a dose of 16 mg/kg for 12 h, the mice were sacrificed. […] Then, all the important organs were dissected for ex vivo imaging. […] Upon the individual differences, we validated 6 mice under surgery to induce orthotopic tumor in pancreatic head. […] As known, the FAP-α was a membrane located protein, overexpressed on tumor associate fibroblast cell and pancreatic cell surface.
substance,measurement,setting,value
mPEG-GPAKLVFFGC(IR783)GRGD [M1],accumulation in tumor by photoacoustic imaging,MIA PaCa-2 tumor,more accumulation in tumor than that of M2
same,cytotoxicity,MIA PaCa-2 cells,no obvious cytotoxicity
same,"hematological assessment (CREA, WBC, RBC, HCT, MCV, MCH, MCHC, RDW-CV, PLT, MPV)",[1],normal
same,"hepatic toxicity (ALT, ALP, AST, TP, ALB)",[1],no obvious hepatic toxicity
same,"organ damage in H&E slices of heart, liver, spleen, lung, kidney, pancreas",[1],no noticeable organ damage and tissue injury
same,fluorescence signal on tumor relative to surrounding spleen tissue (signal-to-background),[2],over 9 folds
